Reference: the supplement of paper PMC10724198

Columns and labels:
[1] = tested on: Saccharomyces cerevisiae; experiment: protein stability index of tFT-peptide fusion in deletion strain of DOA10 (PSI (0-1 scale)); higher = more stable (slower turnover)
Protocol: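 MPS profiling in S. cerevisiae of two library types built from selected 12-aa C-degron peptides (IN1, IN2, LN1, LN3, VN2, R1-R5, W1-W3, Atg1 and Rpa12 C-termini): saturation mutagenesis libraries and C-terminal +1 capping libraries (13 aa). Each peptide is fused to the C-terminus of a sfGFP-mCherry timer, after a GGGS linker. Cells are FACS-sorted into 8 mCherry/sfGFP bins and sequenced. PSI runs from 0 (unstable) to 1 (stable), measured once in wild type and in the das1Δ or doa10Δ background.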

[2] = tested on: Saccharomyces cerevisiae; experiment: protein stability index of tFT-peptide fusion in wild type (PSI (0-1 scale)); higher = more stable (slower turnover); settings: genetic background: wild type
[3] = tested on: Saccharomyces cerevisiae; experiment: protein stability index of tFT-peptide fusion in deletion strain of DAS1 (PSI (0-1 scale)); higher = more stable (slower turnover)
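Wherever protein stability index of tFT-peptide fusion in deletion strain of DAS1 is given: PSI is a weighted mean of each variant's read distribution over the sorted stability bins, computed only for variants having over 10 reads in total.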
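Wherever protein stability index of tFT-peptide fusion in deletion strain of DOA10 is given: PSI per variant is the weighted mean of its sequencing read distribution over the sorted stability bins, counting only variants with over 10 reads summed across bins.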
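Wherever protein stability index of tFT-peptide fusion in wild type is given: PSI derived as read-weighted mean over the 8 sorting bins, only variants exceeding 10 total reads kept, mCherry placed adjacent to the peptide and sfGFP distal.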

| Sequence | protein stability index [1] | protein stability index [2] | protein stability index [3] |
| --- | --- | --- | --- |
| AIRLPMCPLLLR | 0.649 | 0.27 | – |
| AISLPMCPLLLR | 0.655 | 0.226 | – |
| AITFPMCPLLLR | 0.676 | 0.3 | – |
| AITLIMCPLLLR | 0.658 | 0.465 | – |
| AITLPGCPLLLR | 0.683 | 0.327 | – |
| AITLPMCPALLR | 0.672 | 0.493 | – |
| AITLPMCPLLLC | 0.184 | 0.134 | – |
| AITLPMCPLLLRK | 0.67 | 0.43 | – |
| AITLPMCPLLLRM | 0.573 | 0.172 | – |
| AITLPMCPLLLRQ | 0.634 | 0.34 | – |
| RLIQPQPVQFLN | – | 0.0694 | 0.593 |
| RLIQPVPVQFLN | – | 0.123 | 0.583 |
| RLLQPLPVQFLN | – | 0.037 | 0.595 |
| RLNQPLPVQFLN | – | 0.0569 | 0.605 |
| RLSQPLPVQFLN | – | 0.0622 | 0.607 |
| RQIQPLPVQFLN | – | 0.124 | 0.604 |
| RRIQPLPVQFLN | – | 0.0626 | 0.601 |
| SKILRQKMNHQN | – | 0.153 | 0.677 |
| TSLAASFWRVVG | – | 0.125 | 0.688 |
| VGGAVGGWRLVG | – | 0.156 | 0.67 |
| VKHKKGQKQKIN | – | 0.105 | 0.716 |
| VKILRQKMNHQN | – | 0.174 | 0.67 |
| VLGAVGGWRLVG | – | 0.133 | 0.673 |
| VLIQPLPVQFLN | – | 0.0725 | 0.603 |
| VRGAEGGWRLVG | – | 0.242 | 0.686 |

| Sequence | protein stability index [1] | protein stability index [2] | protein stability index [3] |
| --- | --- | --- | --- |
| VRGALGGWRLVG | – | 0.171 | 0.669 |
| VRGATGGWRLVG | – | 0.188 | 0.682 |
| VRGAVGDWRLVG | – | 0.215 | 0.658 |
| VRGAVGEWRLVG | – | 0.182 | 0.696 |
| VRGAVGGFRLVG | – | 0.661 | 0.677 |
| VRGAVGGLRLVG | – | 0.628 | 0.681 |
| VRGAVGGWMLVG | – | 0.456 | 0.698 |
| VRGAVGGWQLVG | – | 0.28 | 0.689 |
| VRGAVGGWRIVG | – | 0.325 | 0.678 |
| VRGAVGGWRLVGC | – | 0.638 | 0.694 |
| VRGAVGGWRLVS | – | 0.148 | 0.686 |
| VRGAVGGWSLVG | – | 0.633 | 0.689 |
| VRGAVGGWTLVG | – | 0.49 | 0.664 |
| VRGAVGNWRLVG | – | 0.14 | 0.69 |
| VRGAVKGWRLVG | – | 0.148 | 0.68 |
| VRGCVGGWRLVG | – | 0.148 | 0.655 |
| VRGWVGGWRLVG | – | 0.134 | 0.681 |
| VRNAVGGWRLVG | – | 0.137 | 0.674 |
| VRQAVGGWRLVG | – | 0.132 | 0.684 |
| VRTAVGGWRLVG | – | 0.137 | 0.678 |
| VRYAVGGWRLVG | – | 0.0921 | 0.68 |
| VSGAVGGWRLVG | – | 0.143 | 0.672 |
| VVGAVGGWRLVG | – | 0.125 | 0.69 |
| YLIQPLPVQFLN | – | 0.0777 | 0.624 |
